This is an account of results in patent US20190062438A1 (CSL, published 2019).

Numbering of substitutions follows the chain as printed.

Common to all, as to assay: SPR, kinetics, Fab over captured mutant
Background: SPR reads the build-up and loss of mass on a sensor chip optically.

One assay has as its target T1, shCD131 E366A (human, UniProt P32927 17-438).
T1 construct: C-terminal 6xHis
T1 sequence: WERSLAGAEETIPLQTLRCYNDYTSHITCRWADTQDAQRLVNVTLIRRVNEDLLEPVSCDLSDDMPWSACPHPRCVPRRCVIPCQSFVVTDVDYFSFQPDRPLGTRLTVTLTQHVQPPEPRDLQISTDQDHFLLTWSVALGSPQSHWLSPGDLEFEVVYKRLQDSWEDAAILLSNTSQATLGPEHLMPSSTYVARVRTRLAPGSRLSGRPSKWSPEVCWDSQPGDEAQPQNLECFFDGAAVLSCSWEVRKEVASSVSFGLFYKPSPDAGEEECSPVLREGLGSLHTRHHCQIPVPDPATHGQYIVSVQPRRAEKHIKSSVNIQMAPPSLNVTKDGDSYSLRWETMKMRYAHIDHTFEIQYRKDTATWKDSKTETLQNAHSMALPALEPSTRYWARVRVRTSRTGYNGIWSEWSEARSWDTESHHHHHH
The procedure:
(§1) As shβc is a dimer, kinetics assays were performed with shβc captured on the sensor surface, and purified Fab injected as the analyte. Avidity effects were avoided by the use of Fab rather than whole IgG.
(§2) shCD131 was captured on spots 1 and 5 of each flow cell for 2 minutes at a concentration of 0.4 μg/ml. […] For some analysis purified Fab was injected over each flow cell for 3 minutes and dissociation was monitored for a further 10 minutes. Regeneration of the surface was performed after each cycle with a 40 second injection of 25 mM glycine, pH 2.0. The analysis was performed with Fabs at several concentrations between 100 and 0.31 nM, with each concentration analyzed twice and in random order. The analysis was performed at a flow rate of 30 μl/min in HBS-EP buffer (10 mM Hepes, 150 mM NaCl, 3 mM EDTA, 0.005% Tween 20, pH 7.4) at 37° C. Responses from spots 2 and 4 of each flow cell, (in which shβc was not captured, but otherwise treated identically), were subtracted from those of spots 1 and 5 respectively to produce reference subtracted data. Reference subtracted responses from a blank injection comprising buffer alone were subtracted from the resultant sensorgrams to produce double referenced data suitable for kinetic analysis. Double-referenced sensorgrams were fitted using non-linear regression to a model describing 1:1 kinetics, including a term for mass transport limitation. The Rₘₐₓ value was fitted locally to account for slight deviations in the level of sCD131 captured, with association rate (kₐ), dissociation rate (kd) and equilibrium dissociation constant (KD) fitted globally.
(§3) Mapping of the shCD131 epitope was performed by measurement of the affinity of Fabs for various alanine point mutants of shCD131 essentially as described above, with the following exceptions. Each shCD131 mutant was captured for 120 seconds at concentrations between 1 and 5 μg/ml. For kinetic analysis, purified recombinant Fabs were injected for 2 minutes, and dissociation was monitored for a further 2 minutes. […] Fab concentrations ranged from 16 μM to 3.9 nM in two-fold dilutions.

The target of the next assay is T2, shCD131 D369A (human, UniProt P32927 17-438).
T2 construct: C-terminal 6xHis
T2 sequence: T1 sequence with A350E, D353A
The procedure: as §1, §2, §3

For another assay, the target named is T3, shCD131 V105A (human, UniProt P32927 17-438).
T3 construct: C-terminal 6xHis
T3 sequence: T1 sequence with V89A, A350E
The procedure:
as §1, §2, §3

For a further assay, the target named is T4, shCD131 R364A (human, UniProt P32927 17-438).
T4 construct: C-terminal 6xHis
T4 sequence: T1 sequence with R348A, A350E
On the procedure: as §1, §2, §3

B1: 9A2 Fab (Fab, V domains shown)
VH: EVQLLESGGGLVQPGGSLRLSCAASGFTFSHYHMLWVRQAPGKGLEWVSSIRSSGGFTYYADSVKGRFTISRDNSKNTLYLQMNSLRAEDTAVYYCARFYDSFFDIWGQGTMVTVSS
VL: DIQMTQSPSSVSASVGDRVTITCRASQGISSWLAWYQQKPGKAPKLLIYAASSLQSGVPSRFSGSGSGTDFTLTISSLQPEDFATYYCQQANSFPITFGQGTRLEIKR
notes: also called recombinant Fab of 9A2
As usually defined, the Kd is the constant that tells how readily two partners part at equilibrium. Regarding B1, the Kd in the assay with shCD131 E366A was found to be 32 nM; with shCD131 D369A, 28 nM; with shCD131 V105A, 78 nM; with shCD131 R364A it was 119 nM.
